Measurements taken from patent US20050202025A1.

Target: FbsA on cells of S. agalactiae O90R (Streptococcus agalactiae)
Assay: increasing fibrinogen on S. agalactiae O90R cells immobilised on microtiter wells; apparent KD from the concentration for half maximal binding

Substance: human fibrinogen (from UniProt P02671 20-629; P02675 31-491; P02679 27-437) (ligand)
- Kd: 25 nM
